# Experimental data reported in patent US10640556B2, “Anti amphiregulin antibodies, compositions comprising same and uses thereof” (Yeda Research and Development Co. Ltd., priority 2015, dated 2020).
# T1: human AREG (Homo sapiens, UniProt P15514)
# T1 sequence (P15514 101-198 limits assumed): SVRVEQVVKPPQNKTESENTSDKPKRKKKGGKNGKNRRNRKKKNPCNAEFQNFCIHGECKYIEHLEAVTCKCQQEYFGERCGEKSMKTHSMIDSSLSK
# T2: murine AREG (Mus musculus, UniProt P31955)
# T2 construct: purchased Peprotech
# T2 sequence (P31955 94-191 limits assumed): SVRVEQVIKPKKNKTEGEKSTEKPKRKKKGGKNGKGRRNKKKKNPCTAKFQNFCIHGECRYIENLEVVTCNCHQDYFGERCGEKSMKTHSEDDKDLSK
# Experiments:
# [1] = target: T3, EGFR (Homo sapiens, UniProt P00533); experiment: Receptor downregulation assay in MCF10A cells; type: cell-based; design: endogenous in cells; conditions: AREG 1 ng/mL or 100 ng/mL
# Procedure: FIGS. 2G-2H illustrate that AREG is a low affinity ligand able to induce only limited receptor downregulation in normal epithelial cells. FIG. 2G is a graph illustrating results of the immortalized human mammary cell line MCF10A used for ligand displacement assays. […] The cells were later washed and lysed, and the associated radioactivity was determined. The extent of ligand displacement (mean±range of triplicates) is depicted; and FIG. 2H is a graph illustrating results of MCF10A cells grown in 12 well plates and starved overnight for serum factors. […] The cells were later washed, lysed in 1N NaOH and their radioactivity was determined. Averages of triplicates and S.D. values (bars) are presented.
# (§1) At the end of the incubation period, the cells were placed on ice, washed with ice cold medium and subjected to mild acid wash (0.2 M Na-acetate buffer, pH 4.5, and 0.5 M NaCl) for 2 minutes, followed by 2 washes in ice cold medium. […] Finally, cells were lysed in 1 N NaOH, and their radioactivity was determined.
# [2] = target: T3, EGFR; experiment: Receptor downregulation assay in MCAS cells; type: cell-based; design: endogenous in cells; host or cells: MCAS, MLS, H358, A549; conditions: ligand 50 ng/ml
# Procedure: (§2) The cells were later washed and lysed, and the associated radioactivity was determined. […] The cells were later washed and lysed in 1 N NaOH. Cell-associated radioactivity was determined. […] Washed immunocomplexes, along with whole extracts, were immunoblotted with the indicated antibodies.
# as §1
# [3] = target: T3, EGFR; experiment: Ligand displacement of radiolabeled EGF on MCAS cells; type: binding; design: endogenous in cells; host or cells: MCAS, MLS, H358, A549; conditions: displacement of 125I-EGF (50 ng/mL), 3 hours on ice
# Procedure: FIGS. 2A-2F illustrate that AREG is a low affinity ligand that induces limited receptor downregulation, as well as weak ubiquitination and degradation of EGFR. […] The cells were later washed and lysed, and the associated radioactivity was determined. The extent of ligand displacement (mean±range of triplicates) was plotted with respect to binding in the absence of an unlabeled ligand; FIG. 2B is a graph showing results of MCAS ovarian cells incubated in a 12 well plate and starved overnight for serum factors. […] The cells were later washed and lysed in 1 N NaOH. Cell-associated radioactivity was determined. […] Washed immunocomplexes, along with whole extracts, were immunoblotted with the indicated antibodies.
# For ligand displacement assays, cells were grown in 12-well plates and serum-starved for 12-15 hours. […] The cells were later washed, lysed and their radioactivity counted.
# [4] = target: T3, EGFR; experiment: Ligand-induced receptor ubiquitination assay (MCAS, MLS, H358, A549 cells); type: cell-based; design: endogenous in cells; host or cells: MCAS, MLS, H358, A549; conditions: 10 minutes
# Procedure: as §2
# For determination of ligand-induced receptor ubiquitination, cells were extracted in lysis buffer (50 mM HEPES pH 7.5, 150 mM NaCl, 10% glycerol, 1% Triton X-100, 1 mM EDTA, 1 mM EGTA, 10 mM NaF and 30 mM 3-glycerol phosphate) with freshly added 0.2 mM Na3VO4, a protease inhibitor cocktail and 2 mM N-ethylmaleimide (NEM). Twenty μL of protein G agarose beads and 1 μg of antibody were added to 500 μg of protein lysate. After a 2 hour incubation at 4° C., the immunoprecipitates were collected by centrifugation at 14,000 rpm at 4° C. for 1 minute. The supernatant was discarded and the pellet was washed thrice, prior to electrophoresis.
# [5] = tested on: feedback regulatory components of the EGFR signaling pathways; experiment: qPCR of feedback regulators of EGFR signaling in MCF10A cells; type: cell-based, human
# Procedure: FIGS. 3A-3F illustrate that amphiregulin acts as a weak inducer of transcription-mediated feedback regulatory loops of EGFR signaling. […] Shown are mRNA profiles representative of two independent biological repeats.
# Total RNA was extracted using the PerfectPure RNA Cultured Cell Kit (5-prime) according to the manufacturer's instructions. Total RNA quantity and quality were determined using the NanoDrop® ND-1000 Spectrophotometer. Complementary DNA was synthesized using the High Capacity Reverse Transcription kit (Applied Biosystems, Life Technologies). Primers for the positive (EREG, TGF-alpha and HB-EGF), negative regulators (MIG6/RALT, DUSP1 and DUSP6) and beta2-microglobulin (B2M) were as previously described (Lauriola M et al., (2014) Nat Commun. 5: 5073). The KiCqStart primers from Sigma-Aldrich were used to detect the levels of human AREG (H_AREG_3). Real-time qPCR analysis was performed with SYBR Green (Applied Biosystems) and specific primers on the StepOne Plus Real-Time PCR system (Applied Biosystems). qPCR signals (cT) were normalized to B2M.
# [6] = target: T1, human AREG; experiment: Antigenic determinant comparison of anti-AREG mAbs; type: binding; conditions: data not shown
# [7] = tested on: Cal-27 human head and neck cancer cells; experiment: Cal-27 head and neck tumor xenograft in nude mice; type: in vivo; conditions: Cal-27 tumors, 300 μg per injection intraperitoneally twice a week
# Procedure: Female nude mice were inoculated subcutaneously with Cal-27 human head and neck cancer cells (2×10^6). Once tumors became palpable (5-7 days) mice were randomized and intraperitoneally injected with saline (Control), or with anti-AR mAbs: AR30, AR37 or AR558 (each at 300 μg per injection). Mice were treated with mAbs twice a week and tumor volume was followed. Shown are averages and SD values from at least 5 mice per group.
# To test the ability of anti-AREG antibodies to reduce growth of human tumor cells implanted in immunocompromised mice, Cal 27 tumor cells were used which were inoculated subcutaneously and randomized for treatment after tumors became palpable. […] Furthermore, studies testing pairs of two mAbs illustrate their enhanced anti-tumor activities (data not shown), this can be attributed to the fact that the mAbs bind to distinct antigenic determinants of amphiregulin.
# [8] = target: T2, murine AREG; experiment: ELISA on plates coated with murine AREG; type: binding
# Procedure: FIG. 9A—96 well plates were coated with the indicated ligands (400 ng/mL), including a murine HB-EGF fused to thioredoxin. Plates were incubated for 2 hours with 3 different mAbs specific to AREG (as indicated). Thereafter, wells were incubated for two hours with an anti-mouse antibody conjugated to HRP, followed by a 30 minute incubation with ATBS. Signals were determined using an ELISA reader (set at 415 nm). […] Thereafter, wells were incubated for two hours with an anti-mouse antibody conjugated to HRP, followed by a 30-min incubation with ATBS. Signals were determined using an ELISA reader (set at 415 nm). […] 96-well plates were coated with decreasing concentrations (400, 200, 100, 50, 25 and 10 ng/mL) of the indicated 3 ligands, and then incubated for 2 hours with three different mAbs specific to AREG (AR30, AR37 and AR558) at […]. Thereafter, wells were incubated for two hours with an anti-mouse antibody conjugated to HRP, followed by a 20-min incubation with ATBS. Signals were determined using an ELISA reader (set at 420 nm).
# [9] = tested on: MCF10A cells; experiment: MTS proliferation assay of MCF10A cells; type: cell-based, human; conditions: 72 h, absence or presence of AREG, relatively high mAb concentrations
# Procedure: Proliferation assays using MTS were performed on MCF10A cells (1,000 cells per well). C ells were plated on the day before and treated for 72 h with the indicated mAbs (1, 5, 10, 20 or 50 ug/mL). Increasing concentrations of the indicated mAbs (either alone or in combination with AREG) were used in medium supplemented with 1% serum and AREG (either at 10 or 100 ng/mL).
# [10] = tested on: EGFR; experiment: AREG-induced EGFR phosphorylation in HeLa cells (immunoblot); type: cell-based, human; conditions: AREG 100 ng/ml, mAb 0.1-50 μg/ml, FIG. 10A
# Procedure: FIGS. 6A-6F illustrate AR30, an anti-AREG monoclonal antibody, that inhibits auto-phosphorylation of EGFR. FIG. 6A is a photograph of a Coomassie blue staining of an acrylamide gel showing a purified fraction of AREG isolated from bacteria and purified on a NiNTA column. The molecular weight marker lane indicates a 15 kilodalton band; FIG. 6B, cells were seeded in a 24 well plate, washed and incubated with increasing concentrations of the purified TRX-AREG fusion protein (8.5, 85, 850, 8500 ng/ml). […] Following a 10-min long incubation, the cells were lysed and cleared extracts immunoblotted (IB) with an anti-phosphotyrosine antibody (PY-99); FIG. 6C, 96 well plates were coated with the indicated ligands (0.1 μg/ml), and then incubated for 3 hours with three different mAbs specific to AREG. Thereafter, wells were incubated for two hours with an anti-mouse antibody conjugated to HRP, followed by a 30 minutes incubation with ATBS. […] Serum from non-immunized mice was used as a negative control; FIG. 6E, HeLa cells were pre-incubated with (or without) mAb AR30 (20 μg/mL) and increasing concentrations of AREG. Thereafter, whole cell lysates were immunoblotted (IB) using an antibody specific to the phosphorylated form of EGFR (tyrosine 1068) or an antibody to EGFR; and FIG. 6F, HeLa cells were incubated with (or without) AREG (100 ng/mL) in the presence of increasing concentrations of mAb AR30 (5, 10, 20 and 50 μg/mL). Thereafter, cells were lysed and cleared extracts immunoblotted (IB) using the indicated antibodies.
# FIG. 10A illustrates that anti-AREG mAbs inhibit ligand-induced activation of EGFR. HeLa cells were incubated with (or without) AREG (100 ng/ml) in the presence of increasing concentrations of mAb AR30, mAb AR 37 or mAb AR558 (0.1, 0.2, 0.5, 0.75, 1.5, 3.5, 6.25, 12.5, 25 and 50 μg/ml). Thereafter, cells were lysed and cleared extracts immunoblotted (IB) using the indicated antibodies, including an antibody specific to the phosphorylated (active) for of EGFR (pEGFR).
Molecule,EGFR downregulation [1],EGFR downregulation [2],lower binding affinity compared to EGF [3],"ubiquitination of EGFR ([4]; ligand 100 ng/mL, MCAS, MLS, H358, A549 cells)",ubiquitination of EGFR ([4]; ten-fold higher concentration (1 μg/mL)),induction of feedback regulator transcripts (qPCR) ([5]; ligand 10 ng/ml),induction of feedback regulator transcripts (qPCR) ([5]; ligand 100 ng/ml),antigenic determinant targeted [6],tumor growth [7],"recognition of murine AREG (ELISA) ([8]; ligand coated at 400 ng/mL, FIG. 9A)","recognition of murine AREG (ELISA) ([8]; ligand coated at 400-10 ng/mL, FIG. 9C)",inhibition of proliferation [9],AREG-induced phosphorylation of EGFR [10]
"AREG: amphiregulin, low-affinity EGF-family ligand of EGFR",effective downregulation of EGFR was observed only when testing very high concentrations,approximately 30%,approximately 100 fold,failed to do so,comparable levels of receptor ubiquitination as EGF and TGF-alpha,hardly detectable signals,"clear, time dependent transcription of the six tested genes",,,,,,
"AR37: anti-AREG monoclonal antibody from AREG knockout mice; heavy chain SEQ ID NO: 62, light chain SEQ ID NO: 93 (antibody, not fully specified; AR37 heavy chain IgG complete amino acids coding sequence; (35)..(35) Xaa can be any naturally occurring amino acid; (73)..(73) Xaa can be any naturally occurring amino acid; AR37 light chain (IgG) complete amino acids coding sequence) heavy: EVQLVESGGDLVKPGGSLKLSCAASGFTFSNSGMXWFRLTPDKRLEWVATISSGSTYTFYPDTVKGRFIISRXNAKNTLYLQMSSLKSEDTAIYYCVREIWPVWGAGTTITVSSAKT light: QAVVTQESALSTSPGETVTLTCRSSTGAVTTSNYANWVQEKPDHLFTGLLGDTDNRPPGVPARFSGSLLGDKAALTITGAQTEDEAIYFCALWYSNHWVFGGGTKLTVL",,,,,,,,engages a different determinant of human AREG,comparably inhibit tumor growth,recognized the murine molecule better than the other two mAbs tested,recognised the murine molecule,Moderate inhibition,low concentrations of the antibodies were sufficient for blocking
